Common to all, as to assay type: binding
Assay [1] relates to human Nectin-4. In words: Flow cytometry of MDA-MB231 transfected with Flag-tagged Nectin-4. The settings on record: MDA-MB231 transfected with Nectin-4, 0.3 ng/ml-5 μg/mL. On the procedure:
Detection by flow cytometry. • Flow cytometry analysis of MDA-MB231 transfected with the N-terminal Flag-tagged epitope of Nectin-4 using a dose range (0.3 ng/ml-5 μg/mL) of Ch-15A7.5 or Ch-5A12.2 antibodies Parental MDA-MB231 cells are included as controls. Cells were then stained with phycoerythrin conjugate goat anti human Fc antibody. The normalized mean fluorescence intensity is shown. Inlay: staining of parental MDA-MB231 cells with anti Nectin-1, -2 and -3 mAbs ([…]). Mean fluorescence intensity is represented.
Human breast carcinoma cell line MDA-MB231 (ATCC, Manassas, VA) was cultured in DMEM supplemented with 10% fetal bovine serum, 50 IU/mL penicillin, 50 μg/mL streptomycin and 2 mM glutamine. The cells were transfected with expression vector p3XFLR4.C1 containing a PVRL4 cDNA. Human triple negative breast cancer cell line SUM190PT (BioIVT, Westbury, NY) was cultures in Ham's F12 medium with 5% fetal bovine serum, 1% non-essential amino acids, 1% Hepes, 1% insulin, 1 μg/mL hydrocortisone, 6.8 ng/ml Triiodo L-tyrosine, 100 IU/mL penicillin, 100 μg/mL streptomycin and 2 mM glutamine. Chinese hamster ovary CHO cell line was cultured in DMEM supplemented with 10% fetal bovine serum, 100 IU/mL penicillin, 100 μg/mL streptomycin and 2 mM glutamine. […]
(In general: Flow cytometry measures light scatter and fluorescence of single cells or particles in a stream.)

Assay [2] concerns human Nectin-4. Kind of assay: ELISA on coated Nectin-4 Fc fusion proteins (Nec4-VCC, Nec4-V). The note with it: ELISA. On the procedure:
(§1) Detection by ELISA. • Ninety-six-wells plates were coated, as indicated, with 5 μg/mL Nectin-1 extracellular domain Fc fusion recombinant protein (Nec1-VCC), or Nectin-4 IgV-like domain Fc fusion recombinant protein (Nec4-V), or Nectin-4 extracellular domain Fc fusion recombinant protein (Nec4-VCC) overnight at 4° ° C.
FIG. 3: Characterization of Ch-15A7.5 epitope. Competition assay was performed by ELISA. • Ninety-six-wells plates were coated with 5 μg/mL of Nectin-4 extracellular domain Fc fusion recombinant protein (Nec4-VCC) overnight at 4° C. Binding of peroxidase-conjugated Ch-15A7.5 mAb (5 μg/mL) was measured in presence of increasing concentrations (2.75 ng/ml-6 μg/mL) of Rituximab, Ch-15A7 mAb, Enfortumab (HA22), Ch-N41 mAb and Ch-14A5 mAb.
(§2) A sandwich enzyme-linked immunosorbent assay was used to control specificity of Ch-15A7.5 antibody and to perform competition assays between different mAbs. Ninety-six-wells plates were coated with 10 nM of Nectin-4-VCC-Fc, Nectin-1-VCC-Fc (entire extracellular part) or Nectin-4-V-Fc (comprising only the IgV domain) overnight at +4° C. After washes and saturation with PBS 1% BSA, cells were incubated for 2 hours at 25° C. with 10 nM of peroxidase-conjugated Ch-15A7.5 mAb. In the case of competition, binding of 0.5 nM of peroxidase conjugated Ch-15A7.5 mAb was measured in the presence of variable concentration (0.018 nM to 40 nM) of “cold” mAb. One hundred μL of peroxidase substrate was added (One Step ABST, Pierce), and OD was red at 405 nm.
In general terms: In an ELISA, binding on a coated surface is turned into a signal by an enzyme label.

In assay [3] the target is T1, Nectin-1 extracellular domain (Homo sapiens, UniProt Q15223).
T1 construct: Nectin-1 extracellular domain Fc fusion recombinant protein (Nec1-VCC)
T1 sequence (Q15223 31-355 limits assumed): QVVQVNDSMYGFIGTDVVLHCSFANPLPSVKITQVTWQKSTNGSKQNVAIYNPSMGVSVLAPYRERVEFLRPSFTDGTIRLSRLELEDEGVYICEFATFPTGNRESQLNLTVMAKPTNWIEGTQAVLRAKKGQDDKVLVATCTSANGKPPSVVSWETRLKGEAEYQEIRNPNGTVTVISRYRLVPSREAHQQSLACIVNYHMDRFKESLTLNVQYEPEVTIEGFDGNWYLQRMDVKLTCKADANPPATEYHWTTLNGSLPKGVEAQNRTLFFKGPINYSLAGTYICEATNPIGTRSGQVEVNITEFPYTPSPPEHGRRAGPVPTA
Kind of assay: ELISA on coated Nectin-1 extracellular domain Fc fusion protein (Nec1-VCC). On the procedure: as §1, §2

Assay [4] concerns the target T2, Nectin-4 expressed by normal differentiated human keratinocytes (NHEK) (Homo sapiens, UniProt Q96NY8).
T2 construct: Cells or cell lines (10,000-50,000) expressing Nectin-4 (naturally or transfected); endogenous in cells; host or cells: NHEK, differentiated with 0.1 mM CaCl2
T2 sequence (Q96NY8 32-510): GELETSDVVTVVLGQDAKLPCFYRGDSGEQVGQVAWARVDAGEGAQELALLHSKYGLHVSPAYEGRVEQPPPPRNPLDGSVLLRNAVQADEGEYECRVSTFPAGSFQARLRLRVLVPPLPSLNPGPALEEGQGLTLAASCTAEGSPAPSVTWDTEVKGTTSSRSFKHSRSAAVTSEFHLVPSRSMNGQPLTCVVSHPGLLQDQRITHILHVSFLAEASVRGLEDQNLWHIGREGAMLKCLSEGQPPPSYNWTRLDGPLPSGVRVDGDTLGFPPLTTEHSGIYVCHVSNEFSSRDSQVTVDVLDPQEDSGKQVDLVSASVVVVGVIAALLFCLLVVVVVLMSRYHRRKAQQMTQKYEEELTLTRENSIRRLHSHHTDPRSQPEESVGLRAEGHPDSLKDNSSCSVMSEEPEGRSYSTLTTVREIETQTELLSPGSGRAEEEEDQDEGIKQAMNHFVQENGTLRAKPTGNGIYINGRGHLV
Kind of assay: Flow cytometry on normal differentiated human keratinocytes (NHEK). The note with it: dose range 8 PM-33 nM. On the procedure:
FIG. 15: Differential binding of Ch-15A7.5 and its humanized variants to Nectin-4 expressed by tumor cell line and normal differentiated human keratinocytes. Detection by flow cytometry.
Flow cytometry analysis of TNBC cell line (SUM190, upper panels) and normal differentiated (0.1 mM CaCl2) human keratinocytes (NHEK, lower panels) using a dose range (8 PM-33 nM) of Ch-5A12.2, Ch-15A7.5 and its humanized variants 15A7.5-H1L2, -H1L3, -H2L2, -H2L3, -H3LO, -H3L2, -H3L3. Cells were then stained with phycoerythrin conjugate goat anti human Fc antibody. Normalized mean fluorescence intensities are shown. Non-linear curve fitting (4 parameters) was done with GraphPad Prism 9 software.
Cells or cell lines (10,000-50,000) expressing Nectin-4 (naturally or transfected) were incubated with dose range of the indicated antibodies. After washing, cells were then stained with phycoerythrin-conjugated goat anti human antibody (5 μg/mL) Jackson Immuno Research). After fixation, cells were stained with a viability dye (e780, Invitrogen) before flow cytometry acquisition.

B1: Ch-15A7.5: chimeric antibody of 15A7.5 with Fc-silent human Fc (antibody, V domains shown)
VH: EVKLVESGGGLVQPGGSRKLSCAASGFTFSNYGMAWVRQAPGKGPEWVAFISNLAYGINYADTVTGRFTISRENAKNTLYLEMRSLRSEDTAMYYCARGARATGWFAYWGQGTLVTVSA
VL: DIVMTQSQKFMSTSIGDRVSVTCKASQNVDTHVAWYQEKPGQSPKALIYSASYRYSGVPDRFTGSGSGTDFTLTISNVQSEDLADYFCQQYNSYPLTFGGGTKLEIK
As for B1, the “recognition of human Nectin-4” value in the assay with human Nectin-4 [1] is on record as “recognize human Nectin-4”. Moreover, in the assay on human Nectin-4 [2] (Nec4-V coated), the “recognition of Nectin-4 IgV-like domain” value was “recognizes IgV-like domain of human Nectin-4”. In addition, in the assay with human Nectin-4 [2] (Nec4-VCC coated), the “recognition of Nectin-4 extracellular domain” value is listed as “recognizes the Nectin-4 extracellular domain”. For the same molecule, in assay [3], the “recognition of Nectin-1 extracellular domain” value is “not the Nectin-1 extracellular domain”. Moreover, the “apparent EC50 towards keratinocytes in comparison to that of Ch-5A12.2” value in assay [4] is “much lower apparent EC50”.
